Experiments:
Assay in all cases: dot blot (nitrocellulose filter binding)
Conditions in all cases: 5 mM Mg2+; Dot blot/aptamer blot: 20 mM Tris-HCl, 100 mM NaCl, 5 mM MgCl2, 0.1% BSA (pH not given), 50 nM aptamer in dot blot (membranes equilibrated at 4 C), blots 1 h …
[1] = biological target: GST (glutathione S-transferase tag) (UniProt P08515)
[2] = test system: MBP (maltose-binding protein tag)
[3] = biological target: His-TrxA (His-tagged thioredoxin 1) (UniProt P0AA25)

**Q.** For “ATACGACTCACTATTAGGGACAAAGCTGACAACCCTTTCATAATCTAACTACATTTATGTGCTAGACTACTGACTAC [G1]”, which Kd [1] is on record?
**A.** 59 nM

**Q.** Which Kd [2] does the source give for “ATACGACTCACTATTAGGGACCACATAAACATGCATCGCTCAATAACGGGATATTGTTGTGCTAGACTACTGACTACAA [M1]” here?
**A.** 86 nM

**Q.** “ATACGACTCACTATTAGGGATGTCCACCATATAGATCGATTTAAGTCCCTCGTTATTAATGCTAGACTACTGACTACAA [H1]” was tested. Which Kd [3] did it give?
**A.** 173 nM

Reference: article PMC7658645
